We go through 40 sequences from the Immune Epitope Database (IEDB).

Bounds are passed on as bounds.

One test addresses HLA-A*02:01. Briefly: IEDB peptide-MHC binding, purified MHC/direct/fluorescence; filed as Kd, often an IC50 or EC50 that approximates it; ≥ and ≤ were set here for values at or beyond the usual limits of such assays.
In a further test the target is HLA-A*69:01. Described as above. As to conditions: source organism: Pseudomonas aeruginosa.
For the next test, the target named is HLA-A*30:02. Briefly: IEDB peptide-MHC binding, purified MHC/competitive/radioactivity; filed as Kd, often an IC50 or EC50 that approximates it; ≥ and ≤ were set here for values at or beyond the usual limits of such assays.
The target of the next test is HLA-A*24:02. The description is as above.
For the next test, the target named is HLA-A*02:02. Described as above.
A further test has as its target HLA-A*02:03. Described as above.
In another test the target is HLA-A*02:06. Described as above.
Setting [1] is: source organism: Vaccinia virus WR.
[2] abbreviates: source organism: SARS coronavirus Tor2.
Setting [3] is: source organism: Mammarenavirus brazilense.

A word on the Kd: it is the equilibrium constant for the complex coming apart. For the sequence ACMDGFEVV, the Kd with HLA-A*02:01 (source organism: Pseudomonas aeruginosa) turned out to be 290 nM; in the test with HLA-A*69:01, 2700 nM.
Turning to AGPISQHNY, the Kd in the test with HLA-A*30:02 (source organism: Dengue virus 3 Sri Lanka/1266/2000) is not below 76900 nM.
DWIPLALTI: the Kd with HLA-A*24:02 (source organism: Dengue virus 2 Jamaica/1409/1983) was determined as 16 nM.
With GIIITVGMLI, the Kd with HLA-A*02:02 (setting [1]) came out at 3580 nM; in the test with HLA-A*02:03 (setting [1]) it was 595 nM; with HLA-A*02:06 (setting [1]) it was 1130 nM.
On the same counts, the results for GINNVQSLI are 474 nM, 378 nM and 1730 nM.
In the case of GLIAIVMVTI, the values for the Kd in the test with HLA-A*02:02 (setting [2]), with HLA-A*02:03 (setting [2]) and in the test with HLA-A*02:06 (setting [2]) were 7.63 nM, 18.9 nM and 137 nM, respectively.
Regarding GLLEWIFRA, the figures for the Kd in the test with HLA-A*02:02 (setting [3]), with HLA-A*02:03 (setting [3]) and with HLA-A*02:06 (setting [3]) were 21.9 nM, 225 nM and 7.13 nM, respectively.
Regarding GTTVVKVKY, the Kd with HLA-A*30:02 (source organism: Dengue virus 4 Philippines/H241/1956) was determined as 244 nM.
As to HTYHLENDKI, the Kd with HLA-A*02:02 (setting [1]) was determined as 1790 nM; with HLA-A*02:03 (setting [1]) it was 13700 nM; in the test with HLA-A*02:06 (setting [1]) it was 1990 nM.
On the same counts, the results for IAEYIAGLKI are not below 28600 nM, not below 23000 nM and 10200 nM.
In the same order, the values of IASILSLET are 3670 nM, 7480 nM and 318 nM.
As to IAVFDSKLI, the Kd with HLA-A*02:02 (setting [1]) was 7850 nM; with HLA-A*02:03 (setting [1]) it was 11900 nM; with HLA-A*02:06 (setting [1]), 11900 nM.
Regarding IGNENYLDY, the Kd with HLA-A*30:02 (source organism: Dengue virus 1 Brazil/97-11/1997) is 956 nM.
IIELPYVGDT: the Kd was 13700 nM with HLA-A*02:02 (setting [1]), 4420 nM with HLA-A*02:03 (setting [1]) and 16900 nM with HLA-A*02:06 (setting [1]).
In the same order, the values of IITILQDIV are 827 nM, 666 nM and 658 nM.
With ILDNQGRVV, the Kd with HLA-A*02:01 (source organism: Venezuelan equine encephalitis virus) was found to be 1210 nM.
Regarding ILFQNNDINA, the Kd came out at 23.3 nM with HLA-A*02:02 (setting [1]), 407 nM with HLA-A*02:03 (setting [1]) and 3180 nM with HLA-A*02:06 (setting [1]).
On the same counts, the results for IMDKEQLLKI are 311 nM, 288 nM and 1340 nM.
In the same order, the values of IQKDINITHT are 1360 nM, 340 nM and not below 61700 nM.
ITHTNITTLL: the Kd turned out to be 1690 nM with HLA-A*02:02 (setting [1]), 101 nM with HLA-A*02:03 (setting [1]) and 14800 nM with HLA-A*02:06 (setting [1]).
As to IVDTVSALV, the Kd came out at 16.6 nM with HLA-A*02:02 (setting [2]), 528 nM with HLA-A*02:03 (setting [2]) and 42.9 nM with HLA-A*02:06 (setting [2]).
Regarding IVFGIYKDNL, the Kd in the test with HLA-A*02:02 (setting [1]) stood at 187 nM; with HLA-A*02:03 (setting [1]), 792 nM; with HLA-A*02:06 (setting [1]), 47.8 nM.
Take IVNSVLLFL: the Kd with HLA-A*02:02 (setting [2]) was determined as 7.06 nM; with HLA-A*02:03 (setting [2]), 179 nM; with HLA-A*02:06 (setting [2]), 30.5 nM.
Consider IVPDIKLDA, for which the Kd in the test with HLA-A*02:02 (setting [1]) came out at 6390 nM; in the test with HLA-A*02:03 (setting [1]), 15700 nM; with HLA-A*02:06 (setting [1]) it was 3430 nM.
With IYKAPSENW, the Kd with HLA-A*24:02 (source organism: Homo sapiens) turned out to be 39 nM.
For the sequence KAALSEGVY, the Kd with HLA-A*30:02 (source organism: Dengue virus 4 Dominica/814669/1981) came to 15 nM.
For KIEDLINQLV, the Kd with HLA-A*02:02 (setting [1]) amounted to 87 nM; with HLA-A*02:03 (setting [1]) it was 70.8 nM; with HLA-A*02:06 (setting [1]), 145 nM.
In the same order, the values of KILSDENYLL are 25.2 nM, 3770 nM and 15.6 nM.
In the same order, the values of KIMEIVSHL are 79 nM, 10.3 nM and 29.7 nM.
In the same order, the values of KINEMVDEL are 1.42 nM, 75.6 nM and 317 nM.
For KLLNMRDLI, the figures for the Kd in the test with HLA-A*02:02 (setting [1]), with HLA-A*02:03 (setting [1]) and with HLA-A*02:06 (setting [1]) were 496 nM, 329 nM and 43.8 nM, respectively.
On the same counts, the results for KLLSTSNVIT are 2260 nM, 3350 nM and 1550 nM.
On to KLTLKGMSY, for which the Kd in the test with HLA-A*30:02 (source organism: Dengue virus 1 Singapore/S275/1990) worked out at 521 nM.
In the case of KTVKNVDII, the dissociation constant Kd was determined as 607 nM with HLA-A*02:02 (setting [1]), 1790 nM with HLA-A*02:03 (setting [1]) and 698 nM with HLA-A*02:06 (setting [1]).
For KVTGSYNLV, the Kd is 66.3 nM with HLA-A*02:02 (setting [1]), 43.1 nM in the test with HLA-A*02:03 (setting [1]) and 193 nM with HLA-A*02:06 (setting [1]).
In the same order, the values of LALKNSQAEL are 741 nM, 333 nM and 1250 nM.
Take LIDFYLCFL: the results for the Kd with HLA-A*02:02 (setting [2]), with HLA-A*02:03 (setting [2]) and in the test with HLA-A*02:06 (setting [2]) were 8.31 nM, 61 nM and 10.9 nM, respectively.
Take LISFFGLFDI: the values for the Kd with HLA-A*02:02 (setting [1]), with HLA-A*02:03 (setting [1]) and in the test with HLA-A*02:06 (setting [1]) were 75.9 nM, 108 nM and 171 nM, respectively.
For LLFQLCTFT, the values for the Kd in the test with HLA-A*02:02 (setting [2]), in the test with HLA-A*02:03 (setting [2]) and in the test with HLA-A*02:06 (setting [2]) were 22.3 nM, 3.77 nM and 11.1 nM, respectively.
For LLPLTSLVI, the Kd was determined as 2390 nM with HLA-A*02:02 (setting [1]), 621 nM in the test with HLA-A*02:03 (setting [1]) and 1430 nM in the test with HLA-A*02:06 (setting [1]).
